How the values were obtained:
[1] = system: MCF-7 cells; experiment: HRG dependent MCF-7 proliferation assay; format: cell-based, human; settings: HRG dependent MCF-7 assay
Protocol: (§1) SK-BR-3 cells were cultured in DMEM-F/12 supplemented with L-glutamine and 10% heat inactivated FBS. BxPC-3-luc2 cells were cultured in RPMI1640 supplemented with 10% heat inactivated FBS. MCF-7 cells were cultured in RPMI1640 supplemented with 100 μM, NEAA1 mM sodium pyruvate, 4 μg/ml insulin and 10% heat inactivated FBS.
For the proliferation assay of MCF-7 and BxPC-3-luc2 cells, subconfluent cell cultures were washed with PBS, trypsinized and trypsin was inactivated by adding culture medium. Cells were washed twice in large volumes of assay medium (RPMI 1640 medium containing 0.05% BSA and 10 μg/ml Holo Transferrin). MCF-7 cells were diluted to 5×10^4 cells/ml in culture medium. Antibodies were diluted to concentrations of 10 and 1 μg/ml and added in a volume of 100 μl in 96-well black bottom plates (ABgene AB-0932). Cells were added at a density of 5000 cells/well in the presence of 1 ng/ml final concentration human Recombinant Human NRG1-beta 1/HRG1-beta 1 EGF Domain; (396-HB-050 RND). Human NRG1-beta 1/HRG1-beta 1 EGF Domain will hereinafter be referred to as HRG. […] Fluorescence was measured at 550 nm excitation with 590 nm emission wave length.
The IC50 for the bispecific antibodies, monoclonals and comparator antibodies was calculated using non-linear regression analysis with Prism software.

[2] = system: BxPC-3-luc2 cells; experiment: HRG dependent BxPC-3-luc2 proliferation assay; format: cell-based, human
Protocol: as §1
Antibodies were diluted to concentrations of 10 and 1 μg/ml and added in a volume of 100 μl in 96-well black bottom plates (ABgene AB-0932). […] Fluorescence was measured at 550 nm excitation with 590 nm emission wave length.

IC50 [1]: 0.504 nM
B1: #Ab6: anti-HER3 antibody of Merrimack Pharmaceuticals, recloned in IgG1 backbone (antibody, chains of the INN, looked up, V domains shown)
VH: EVQLLESGGGLVQPGGSLRLSCAASGFTFSHYVMAWVRQAPGKGLEWVSSISSSGGWTLYADSVKGRFTISRDNSKNTLYLQMNSLRAEDTAVYYCTRGLKMATIFDYWGQGTLVTVSS
VL: QSALTQPASVSGSPGQSITISCTGTSSDVGSYNVVSWYQQHPGKAPKLIIYEVSQRPSGVSNRFSGSKSGNTASLTISGLQTEDEADYYCCSYAGSSIFVIFGGGTKVTVL
modifications: IgG1
notes: anti-HER3 antibody of Merrimack Pharmaceuticals, recloned in IgG1 backbone
BxPC3 % Inhibition [2]: −7%

Source: patent US20210206875A1, “ERBB-2 TARGETING AGENT AND A BISPECIFIC ANTIBODY WITH ANTIGEN-BINDING SITES THAT BIND AN EPITOPE ON AN EXTRACELLULAR PART OF ERB-2 AND ERBB-3, FOR TREATMENT OF AN INDIVIDUAL WITH AN ERBB-2, ERBB-2/ERBB-3 POSITIVE TUMOUR” (Merus N.V., priority 2017, published 2021)
